Reference: US20140105889A1 (published 2014)

How the values were obtained:
human FcRn = molecular target: T1, human FcRn (human); experiment: SPR (Biacore), antibody captured by Protein L, human FcRn as analyte, pH 7.0
T1 construct: Soluble human FcRn complexed with β2-microglobulin; also called hFcRn; soluble human FcRn complexed with β2-microglobulin
Experimental: A kinetic analysis of binding between human FcRn and the aforementioned antibodies was carried out using the Biacore T100 or T200 (GE Healthcare). The antibodies being tested were captured on the CM4 Sensor Chip (GE Healthcare) on which a suitable amount of Protein L (ACTIGEN) was suitably immobilized by amine coupling. Next, diluted human FcRn and a running buffer used as a blank were injected to allow the human FcRn to interact with the antibody captured on the sensor chip. A buffer consisting of 50 mmol/L sodium phosphate, 150 mmol/L NaCl and 0.05% (w/v) Tween 20 (pH 7.0 or pH 7.4) was used for the running buffer, and each buffer was also used to dilute the human FcRn. 10 mmol/L glycine-HCl (pH 1.5) was used to regenerate the sensor chip. All measurements of binding were carried out at 25° C. The KD(M) of each antibody to human FcRn was calculated based on kinetics parameters, i.e., the association rate constant ka (1/Ms) and the dissociation rate constant kd (1/s) calculated from a sensorgram obtained by the measurement. The Biacore T100 or T200 Evaluation Software (GE Healthcare) was used to calculate each parameter.

human FcγRIIb [1] = molecular target: T2, human FcγRIIb (human, UniProt P31994 43-217, limits assumed); experiment: SPR (Biacore), antibody captured on Protein L, human FcgR as analyte, pH 7.4, 25 C; amount normalised to captured antibody
T2 construct: also called hFcgRIIb; FcγIIB
T2 sequence: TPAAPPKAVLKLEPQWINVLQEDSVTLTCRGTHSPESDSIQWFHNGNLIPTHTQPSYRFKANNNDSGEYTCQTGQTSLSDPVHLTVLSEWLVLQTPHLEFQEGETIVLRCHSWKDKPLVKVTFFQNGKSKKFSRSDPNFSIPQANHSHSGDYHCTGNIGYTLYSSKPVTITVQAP
Experimental: (§1) Binding activity between the antibodies and human FcγRIa, FcγRIIa(H), FcγRIIa(R), FcγRIIb and FcγRIIIa(F) (hereinafter referred to as human FcγRs) was evaluated using the Biacore T100 or T200 (GE Healthcare). The antibodies being tested were captured by Protein L (ACTIGEN) that was immobilized in suitable amounts on the CM4 Sensor Chip (GE Healthcare) by amine coupling. Next, the diluted human FcγRs and a running buffer used as a blank were injected to allow interaction with the antibodies captured on the sensor chip. A buffer consisting of 20 mmol/L ACES, 150 mmol/L NaCl and 0.05% (w/v) Tween 20 (pH 7.4) was used for the running buffer, and this buffer was also used to dilute the human FcγRs. 10 mmol/L glycine-HCl (pH 1.5) was used to regenerate the sensor chip. All measurements were carried out at 25° C.
(§2) Binding activity to human FcγRs can be represented by the relative binding activity to human FcγRs. Antibody was captured by Protein L, and the amount of change in a sensorgram before and after the antibody was captured was defined as X1. Next, human FcγRs were allowed to interact with the antibody, and the value obtained by subtracting binding activity of human FcγRs represented as the amount of change in a sensorgram before and after allowing the running buffer to interact with antibody captured by Protein L (ΔA2) from the value obtained by multiplying by 1500 the value obtained by dividing the binding activity of human FcγRs represented as the amount of change in a sensorgram before and after that interaction (ΔA1) by the captured amount (X) of each antibody, was divided by the captured amount of each antibody (X) followed by multiplying by 1500 to obtain the binding activity of the human FcγRs (Y) (Equation 2).

human FcγRIIIa(F) [2] = molecular target: T3, human FcγRIIIa(F) (human, UniProt P08637 17-208, limits assumed); experiment: as above
T3 construct: also called hFcgRIIIa(F); allotype F158
T3 sequence (P08637 other isoform, or with tags, fused parts or gaps limits assumed): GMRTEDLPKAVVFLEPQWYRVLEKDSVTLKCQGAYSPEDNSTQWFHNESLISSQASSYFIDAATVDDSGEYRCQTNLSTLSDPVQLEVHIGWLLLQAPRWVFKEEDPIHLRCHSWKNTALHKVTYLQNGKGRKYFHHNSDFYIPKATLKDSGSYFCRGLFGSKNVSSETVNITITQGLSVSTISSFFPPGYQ
Experimental: as §1, §2

[3] = molecular target: T4, human FcγRIIIa type V (allotype V158) (human, UniProt P08637 17-208, limits assumed); experiment: SPR (Biacore), antibody captured on the chip, FcγR as analyte
T4 construct: the assay used allotype V158; also called FcγRIIIaV; FcγRIIIa(V)
T4 sequence (P08637 other isoform, or with tags, fused parts or gaps limits assumed): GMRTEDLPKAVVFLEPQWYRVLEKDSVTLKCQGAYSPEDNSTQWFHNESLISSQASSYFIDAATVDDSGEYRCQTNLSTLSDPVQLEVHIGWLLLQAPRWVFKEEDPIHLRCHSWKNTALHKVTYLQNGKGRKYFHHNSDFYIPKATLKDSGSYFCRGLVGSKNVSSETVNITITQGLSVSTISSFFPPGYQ

[4] = molecular target: T5, human FcγRIIa type H (allotype H131) (human, UniProt P12318 36-217); experiment: as above
T5 construct: also called FcγRIIaH; FcγRIIa(H)
T5 sequence: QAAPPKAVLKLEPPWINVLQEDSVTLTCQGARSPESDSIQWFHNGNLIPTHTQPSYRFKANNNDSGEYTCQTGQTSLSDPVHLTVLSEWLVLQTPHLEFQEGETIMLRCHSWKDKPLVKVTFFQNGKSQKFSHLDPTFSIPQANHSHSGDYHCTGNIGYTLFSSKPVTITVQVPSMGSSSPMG

[5] = molecular target: T6, human FcγRIIa type R (allotype R131) (human, UniProt P12318 36-217); experiment: as above
T6 construct: also called FcγRIIaR; FcγRIIa(R)
T6 chain: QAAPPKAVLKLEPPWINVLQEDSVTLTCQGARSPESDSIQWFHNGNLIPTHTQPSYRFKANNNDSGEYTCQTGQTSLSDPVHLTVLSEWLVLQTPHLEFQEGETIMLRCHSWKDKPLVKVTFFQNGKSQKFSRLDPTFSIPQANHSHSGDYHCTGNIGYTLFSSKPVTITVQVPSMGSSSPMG

human FcγRIIb [6] = molecular target: T7, human FcγRIIb (human, UniProt P31994 43-217); experiment: SPR (Biacore); KD of parent IL6R-B3/IL6R-L for FcγRIIb divided by KD of the variant for FcγRIIb
T7 construct: also called FcγIIB
T7 sequence: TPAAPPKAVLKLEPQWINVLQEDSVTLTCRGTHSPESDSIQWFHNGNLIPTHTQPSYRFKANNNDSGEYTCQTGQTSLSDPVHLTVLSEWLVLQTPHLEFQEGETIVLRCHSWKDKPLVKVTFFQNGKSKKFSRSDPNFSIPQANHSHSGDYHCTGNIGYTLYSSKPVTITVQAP
Text: Furthermore, KD(IIaR)/KD(IIb) and KD(IIaH)/KD(IIb) in the table respectively represent the value obtained by dividing the KD value of each variant for FcγRIIaR by the KD value of each variant for FcγRIIb, and the value obtained by dividing the KD value of each variant for FcγRIIaH by the KD value of each variant for FcγRIIb.

human FcγRIIa(H) = molecular target: T8, human FcγRIIa(H) (human, UniProt P12318 36-217); experiment: SPR (Biacore T100), antibody captured by Protein A, FcγR at 2 µmol/L, 25 C
T8 construct: also called hFcgRIIa(H); FcγRIIa type H
T8 sequence: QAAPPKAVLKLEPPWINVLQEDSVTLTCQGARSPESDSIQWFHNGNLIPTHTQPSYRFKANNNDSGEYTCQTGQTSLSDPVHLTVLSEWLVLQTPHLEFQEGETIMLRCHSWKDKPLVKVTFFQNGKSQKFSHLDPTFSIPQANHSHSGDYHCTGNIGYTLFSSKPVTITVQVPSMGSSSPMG
Experimental: (§3) Next, interaction between these antibodies and FcγR was analyzed kinetically using the Biacore T100 (GE Healthcare). The interaction was measured at a temperature of 25° C. using HBS-EP+ (GE Healthcare) for the running buffer. The Series S Sensor Chip CM5 (GE Healthcare) was used after immobilizing Protein A by amine coupling. […] Antibody captured on the chip was washed by allowing 10 mM glycine-HCl (pH 1.5) to react following measurement. The chip regenerated in this manner was used repeatedly. The dissociation constant KD (mol/L) was calculated from the association rate constant ka (L/mol/s) and dissociation rate constant kd (1/s) as calculated by global-fitting the measurement results with a 1:1 Langmuir binding model using the Biacore

human FcγRIIIa(F) [7] = molecular target: T9, human FcγRIIIa(F) (human, UniProt P08637 17-208, limits assumed); experiment: as above
T9 construct: also called hFcgRIIIa(F)
Experimental: as §3

T1 sequence (chain, as listed by the source limits assumed, chain 1 of 2): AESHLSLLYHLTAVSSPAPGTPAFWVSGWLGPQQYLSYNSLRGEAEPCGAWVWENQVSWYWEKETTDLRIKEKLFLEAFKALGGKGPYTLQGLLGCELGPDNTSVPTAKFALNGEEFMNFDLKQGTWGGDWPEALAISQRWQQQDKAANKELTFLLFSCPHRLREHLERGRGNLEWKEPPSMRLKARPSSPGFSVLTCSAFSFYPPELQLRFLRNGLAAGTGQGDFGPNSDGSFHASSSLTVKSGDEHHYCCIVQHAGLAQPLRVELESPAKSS
T1 sequence (P61769 21-119 limits assumed, chain 2 of 2): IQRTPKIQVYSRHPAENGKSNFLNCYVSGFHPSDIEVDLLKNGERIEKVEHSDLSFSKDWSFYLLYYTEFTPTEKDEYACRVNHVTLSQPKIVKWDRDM

B1: IgG1-F1364 (antibody, name in EU numbering)
heavy: QVQLQESGPGLVKPSETLSLTCAVSGHSISHDHAWSWVRQPPGEGLEWIGFISYSGITNYNPSLQGRVTISRDNSKNTLYLQMNSLRAEDTAVYYCARSLARTTAMDYWGEGTLVTVSSASTKGPSVFPLAPSSKSTSGGTAALGCLVKDYFPEPVTVSWNSGALTSGVHTFPAVLQSSGLYSLSSVVTVPSSSLGTQTYICNVNHKPSNTKVDKKVEPKSCDKTHTCPPCPAPELRGGPKVFLFPPKPKDTLYISREPEVTCVVVDVSHEDPEVKFNWYVDGVEVHNAKTKPREEQYNSTYRVVSVLTVLHQDWLNGKEYKCKVSNKALPAPIEKTISKAKGQPREPQVYTLPPSRDELTKNQVSLTCLVKGFYPSDIAVEWESNGQPENNYKTTPPVLDSDGSFFLYSKLTVDKSRWQQGNVFSCSVMHEALHYHFTKKELSLSP
light: not shown
notes: light chain L(WT)-CK; copies: 2 + 2
In the case of B1, the Kd (human FcRn) is reported as 0.0749 µM.

B2: antibody containing VH3-IgG1-F1326 for the heavy chain and L(WT)-CK for the light chain (antibody)
heavy: QVQLQESGPGLVKPSETLSLTCAVSGHSISHDHAWSWVRQPPGEGLEWIGFISYSGITNYNPSLQGRVTISRDNSKNTLYLQMNSLRAEDTAVYYCARSLARTTAMDYWGEGTLVTVSSASTKGPSVFPLAPSSKSTSGGTAALGCLVKDYFPEPVTVSWNSGALTSGVHTFPAVLQSSGLYSLSSVVTVPSSSLGTQTYICNVNHKPSNTKVDKKVEPKSCDKTHTCPPCPAPEAAGGPSVFLFPPKPKDVLYISRTPEVTCVVVDVSHEDPEVKFNWYVDGVEVHNAKTKPREEQYNSTYRVVSVLQPLHADWLNGKEYKCKVSNKALPAPIEKTISKAKGQPREPQVYTLPPSRDELTKNQVSLTCLVKGFYPSDIAVEWESNGQPENNYKTTPPVLDSDGSFFLYSKLTVDKSRWQQGNVFSCSVMHEALHYHVTQKSLSLSP
light: not shown
B2 was tested, and the “BINDING AMOUNT (RU)” value (human FcγRIIb [1]) was 5.46 RU and the “BINDING AMOUNT (RU)” value (human FcγRIIIa(F) [2]) was 9.51 RU.

B3: IL6R-BP185/IL6R-L (antibody, human IgG1)
heavy: QVQLQESGPGLVKPSETLSLTCAVSGHSISHDHAWSWVRQPPGEGLEWIGFISYSGITNYNPSLQGRVTISRDNSKNTLYLQMNSLRAEDTAVYYCARSLARTTAMDYWGEGTLVTVSSASTKGPSVFPLAPSSKSTSGGTAALGCLVKDYFPEPVTVSWNSGALTSGVHTFPAVLQSSGLYSLSSVVTVPSSSLGTQTYICNVNHKPSNTKVDKKVEPKSCDKTHTCPPCPAPDYLGDDSVFLFPPKPKDTLMISRTPEVTCVVVDVSHEDGEVKFNWYVDGVEVHNAKTKPREEQYNSTYRVVSVLTVLHQDWLNGKEYKCKVSNAALPKPIEKTISKAKGQPREPQVYTLPPSRDELTKNQVSLTCLVKGFYPSDIAVEWESNGQPENNYKTTPPVLDSDGSFFLYSKLTVDKSRWQQGNVFSCSVMHEALHNHYTQESLSLSP
light: DIQMTQSPSSLSASVGDRVTITCRASQDISSYLNWYQQKPGKAPKLLIYYTSRLHSGVPSRFSGSGSGTDFTFTISSLQPEDIATYYCQQGNTLPYTFGQGTKVEIK
notes: Anti-human IL-6 receptor human IgG1 variant; copies: 2 + 2
B3 was tested, and the Kd [3] was 36 µM, the Kd [4] was 7.3 µM and the Kd [5] was 0.68 µM. The “KD(IIb) of the parent polypeptide/KD(IIb) of the altered polypeptide” value (human FcγRIIb [6]) was 44.5.

B4: IgG1-v1 (antibody)
heavy: not shown
light: DIQMTQSPSSLSASVGDRVTITCRASQDISSYLNWYQQKPGKAPKLLIYYTSRLHSGVPSRFSGSGSGTDFTFTISSLQPEDIATYYCQQGNTLPYTFGQGTKVEIK
notes: copies: 2 + 2
In the case of B4, the “binding (RU)” value (human FcγRIIa(H)) is reported as ~2.5 RU and the “binding (RU)” value (human FcγRIIIa(F) [7]) is reported as ~2.5 RU.
